Data as given in article PMC8159800.

Legend:
[1] = molecular target: C-C chemokine receptor type 5 (CCR5) with a C-terminal 1D4 epitope tag (human) (UniProt P51681)
[2] = molecular target: C-C chemokine receptor type 5 (CCR5) with a C-terminal 1D4 epitope tag (human) (UniProt P51681); remark: listed apart in the source

Sequence of UniProt P51681 (P51681 whole entry): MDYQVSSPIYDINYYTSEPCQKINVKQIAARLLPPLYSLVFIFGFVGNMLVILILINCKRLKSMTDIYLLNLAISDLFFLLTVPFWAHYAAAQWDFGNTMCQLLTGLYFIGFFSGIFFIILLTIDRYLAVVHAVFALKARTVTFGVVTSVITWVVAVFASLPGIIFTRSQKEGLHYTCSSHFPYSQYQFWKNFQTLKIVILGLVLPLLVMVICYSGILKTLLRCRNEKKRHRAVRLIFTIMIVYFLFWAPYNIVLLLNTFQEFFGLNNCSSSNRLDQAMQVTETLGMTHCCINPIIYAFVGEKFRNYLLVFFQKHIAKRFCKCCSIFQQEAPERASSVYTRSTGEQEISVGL
Sequence of PSC-RANTES (P13501 24-91): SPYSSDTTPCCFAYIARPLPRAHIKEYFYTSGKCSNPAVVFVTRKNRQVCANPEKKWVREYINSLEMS

Row | increase in intracellular Ca2+ (FLIPR Calcium 6 dye, mean RFU) of CCR5-transfected HEK293T cells on injection of 100 nM PSC-RANTES; no ATP pre-stimulation, no inhibitor [1] | increase in intracellular Ca2+ (FLIPR Calcium 6 dye, mean RFU) of CCR5-transfected HEK293T cells on injection of 100 nM RANTES; buffer pre-injection, no inhibitor [2] | Substance
1 | 9900 RFU |  | PSC-RANTES (from UniProt P13501 24-91) (ligand)
2 |  | 3830 RFU | regulated on activation, normal T cell expressed and secreted (RANTES) (from UniProt P13501 24-91) (ligand)
